In IntAct's records for PubMed 39243984:

B1: Mothers against decapentaplegic homolog 4 (Homo sapiens), Q13485 (parent)
chain: MDNMSITNTPTSNDACLSIVHSLMCHRQGGESETFAKRAIESLVKKLKEKKDELDSLITAITTNGAHPSKCVTIQRTLDGRLQVAGRKGFPHVIYARLWRWPDLHKNELKHVKYCQYAFDLKCDSVCVNPYHYERVVSPGIDLSGLTLQSNAPSSMMVKDEYVHDFEGQPSLSTEGHSIQTIQHPPSNRASTETYSTPALLAPSESNATSTANFPNIPVASTSQPASILGGSHSEGLLQIASGPQPGQQQNGFTGQPATYHHNSTTTWTGSRTAPYTPNLPHHQNGHLQHHPPMPPHPGHYWPVHNELAFQPPISNHPAPEYWCSIAYFEMDVQVGETFKVPSSCPIVTVDGYVDPSGGDRFCLGQLSNVHRTEAIERARLHIGKGVQLECKGEGDVWVRCLSDHAVFVQSYYLDREAGRAPGDAVHKIYPSAYIKVFDLRQCHRQMQQQAATAQAAAAAQAAAVAGNIPGPGSVGGIAPAISLSAAAGIGVDDLRRLCILRMSFVKGWGPDYPRQSIKETPCWIEIHLHRALQLLDEVLHTMPIADPQPLD

Variants of: B1
Details: with smad3_human SMAD3, P84022
smad3_human SMAD3, P84022, sequence (P84022 whole entry, looked up): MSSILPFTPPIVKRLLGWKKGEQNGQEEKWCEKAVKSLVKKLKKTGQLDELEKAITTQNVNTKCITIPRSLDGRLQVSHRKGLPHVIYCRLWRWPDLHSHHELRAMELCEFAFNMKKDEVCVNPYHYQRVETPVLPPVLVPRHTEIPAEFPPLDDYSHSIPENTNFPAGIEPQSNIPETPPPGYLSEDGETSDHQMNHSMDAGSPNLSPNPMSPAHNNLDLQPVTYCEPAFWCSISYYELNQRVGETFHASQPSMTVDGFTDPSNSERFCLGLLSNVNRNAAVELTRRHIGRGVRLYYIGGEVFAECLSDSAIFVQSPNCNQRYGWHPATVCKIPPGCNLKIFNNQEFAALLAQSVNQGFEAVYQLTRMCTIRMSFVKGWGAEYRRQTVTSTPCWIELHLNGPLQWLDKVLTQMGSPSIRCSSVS

Row | Variant | effect of a mutation on the interaction
1 | R361C | decreasing interaction strength
2 | R361H | decreasing interaction strength

Variants of: B1
Details: with smad3_human SMAD3, P84022
Remark: another data set of the same source

Row | Variant | effect of a mutation on the interaction
3 | I500V | increasing interaction strength
